The source of these data is patent US20200223910A1 (STERLING IP, published 2020).

Assay [1] has as its target T1, human TNC rCd4-His-FBG (rat; human, UniProt P05540 209-391; P24821 1974-2201, limits assumed).
T1 construct: domain: domains 3 and 4;domain: FBG; C-terminal FBG fusion made in HEK293F cells; biotinylated in the ELISA and HTRF assays; also called Hu TNC; hTNC; not shown: 6His tag
T1 sequence (chain (part 1 of 2), looked up): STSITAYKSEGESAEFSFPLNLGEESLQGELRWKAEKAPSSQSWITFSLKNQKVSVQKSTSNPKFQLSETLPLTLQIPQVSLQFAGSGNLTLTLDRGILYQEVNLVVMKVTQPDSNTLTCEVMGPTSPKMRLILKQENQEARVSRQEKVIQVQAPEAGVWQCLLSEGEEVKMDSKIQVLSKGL
T1 sequence (chain (part 2 of 2), looked up): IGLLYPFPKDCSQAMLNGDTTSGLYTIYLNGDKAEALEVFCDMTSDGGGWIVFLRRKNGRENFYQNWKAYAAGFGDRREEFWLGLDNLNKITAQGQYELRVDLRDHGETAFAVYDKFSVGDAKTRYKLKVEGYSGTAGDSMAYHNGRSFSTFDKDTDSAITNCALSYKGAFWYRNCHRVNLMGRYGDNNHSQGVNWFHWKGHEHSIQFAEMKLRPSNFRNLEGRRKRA
Description: SPR BIAcore T200, 37 C, IgG4 captured on anti-human Fc, rCd4-His-FBG injected, 1:1 fit; relative to theoretical Rmax. The method, then:
(§1) For the kinetic assay ˜1,500-1,900 response units (RU) of anti-human Fc IgG (GE, BR-1008-39) was immobilised in all flow-cells (FC1-4) on a Series S CM5 sensor chip (BR-1005-30) using EDC/NHS cross-linking chemistry according to the amine coupling kit protocol (GE, BR-1000-50). […] Antibody capture levels ranged typically from 70 RU (for TNR interactions) to 90 RU (for TNC interactions).
(§2) A 1:1 dilution series of antigen in HBS-P+ (30 nM of human and mouse TNC rCd4-His-FBG and 480 nM of human TNR rCd4-His-FBG) was injected with a flow-path via the reference flow cell (FC1 and FC3, respectively) and the antibody capture flow cell (FC2 and FC4, respectively) with a flow rate of 30 μl/min. The association and dissociation phases were measured over a 3.5 and 30 min time period, respectively, for human and mouse TNC rCd4-His-FBG, and 2 and 8 min time period for human TNR rCd4-His-FBG. For interaction analysis with human and mouse TNC rCD4-His-FBG regeneration of free capture antibody surfaces after each antigen injection was done by injection of 3 M MgCl 2 for 60 s and for each sample injection a fresh NSCT antibody was captured. Carry over of antigen was prohibited by an extra needle wash step with 50% DMSO before every injection. Runs were performed at the more physiologically relevant temperature of 37° C.
(§3) Kinetic parameters were determined by reference cell subtraction and fitting the sensorgram experimental data to a 1:1 interaction model using the BIAcore T200 Evaluation software version 2.0.
A general note: SPR reads the build-up and loss of mass on a sensor chip optically.

Assay [2] has as its target T2, mouse TNC rCd4-His-FBG (rat; mouse, UniProt P05540 209-391; Q80YX1 1883-2110, limits assumed).
T2 construct: domain: domains 3 and 4;domain: FBG; Biotinylated in the capture ELISA; also called Mu TNC; mTNC; not shown: 6His tag
T2 sequence (chain (part 1 of 2), looked up): T1 sequence (chain (part 1 of 2), looked up)
T2 sequence (chain (part 2 of 2), looked up): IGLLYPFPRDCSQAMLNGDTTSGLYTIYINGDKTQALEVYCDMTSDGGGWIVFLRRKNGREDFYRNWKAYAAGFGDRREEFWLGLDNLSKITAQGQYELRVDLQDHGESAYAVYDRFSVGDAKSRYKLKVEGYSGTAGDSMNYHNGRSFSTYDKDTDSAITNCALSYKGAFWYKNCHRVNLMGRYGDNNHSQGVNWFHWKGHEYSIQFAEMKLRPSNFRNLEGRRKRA
The description is as above. The protocol:
as §1, §2, §3

The target in assay [3] is T3, human TNR rCd4-His-FBG (rat; human, UniProt P05540 209-391; Q92752 1128-1358, limits assumed).
T3 construct: domain: domains 3 and 4;domain: FBG; also called Hu TNR; hTNR; not shown: 6His tag
T3 sequence (chain (part 1 of 2), looked up): T1 sequence (chain (part 1 of 2), looked up)
T3 sequence (chain (part 2 of 2), looked up): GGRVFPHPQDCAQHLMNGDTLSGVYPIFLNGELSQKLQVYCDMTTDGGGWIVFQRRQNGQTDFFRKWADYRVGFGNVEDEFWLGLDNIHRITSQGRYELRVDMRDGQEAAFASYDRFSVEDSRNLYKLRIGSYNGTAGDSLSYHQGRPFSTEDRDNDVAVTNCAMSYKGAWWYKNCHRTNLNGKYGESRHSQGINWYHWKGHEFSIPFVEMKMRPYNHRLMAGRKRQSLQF
Described as above. The method, then:
as §1, §2, §3

Assay [4] has as its target T1, human TNC rCd4-His-FBG. The assay can be described thus: SPR BIAcore T200, 37 C, IgG4 captured on anti-human Fc, rCd4-His-FBG injected, 1:1 fit. The method, then: as §1, §2, §3
Assay [5] concerns the target T2, mouse TNC rCd4-His-FBG. The description is as above. The method, then: as §1, §2, §3
Assay [6] addresses T3, human TNR rCd4-His-FBG. The description is as above. The protocol: as §1, §2, §3
Assay [7] has as its target T2, mouse TNC rCd4-His-FBG. Description: anti-FLAG capture DELFIA ELISA, scFv supernatant, biotinylated mouse rCd4-His-FBG. The method, then:
E. coli clones harbouring scFv pSANG10 expression plasmids were induced in 96-well plates with auto-induction media as described previously (Schofield et al, 2007). E. coli supernatants were harvested for ELISA assays. ELISA used the DELFIA (dissociation enhanced lanthanide fluorescent immunoassay) system with Europium-labelled anti-FLAG antibody (Sigma, Aldrich, UK). Black immunosorb plates (Nunc) were coated overnight with anti-FLAG M2 antibody (Sigma, F3165, 5 μg/ml in PBS, 50 μl per well), in wells blocked by the addition of 2% milk powder, PBS (PBS-M, 300 μl per well). Plates were washed three times with PBS-T (PBS, 0.1% Tween-20) and three times with PBS followed by the addition of a 1:2 dilution of 96-well auto-induction culture supernatants containing expressed scFv in PBS-M (50 μl per well). The plates were incubated for 1 h, washed as above and biotinylated mouse or human rCd4-His-FBG ([…] in PBS-M, 50 μl) added to each well. Plates were incubated for a further 1 h, washed and Strepravidin-Eu added (Perkin Elmer, 1 μg/ml, PBS-M, 50 μl), incubated for 30 min, washed and DELFIA enhancement solution added (50 μl) and plates read on a Perkin Elmer Fusion plate reader (excitation=320 nm, emission 620 nm).

Assay [8] has as its target T1, human TNC rCd4-His-FBG. The assay can be described thus: HTRF competition, scFv supernatant; competitor d2-labelled B12 IgG. The method, then:
IgG antibodies were labelled using the d2 labelling kit (CisBio, 62D2DPEA) as directed by the manufacturer. Streptavidin europium cryptate (CisBio, 610SAKLA, Lot#25C) was used at a final concentration of 1.8 ng active moiety (SA) per 20 μl reaction as recommended by the manufacturer. Biotinylated rCd4-His-FBG was prepared using EZ-link Sulfo-NHS-LC-Biotin reagent (Thermo Scientific, 21327) the extent of biotinylation was quantified using biotinylation fluorescence quantitation kit (Thermo Scientific, 46610). Where appropriate, supernatants containing scFv (prepared as described above for ELISA assays) were added to the 384-well assay plate at a final dilution of 1/20 (i.e. ⅕ dilution in assay buffer followed by addition of 5 μl diluted sample to the 20 μl FRET assay). The concentrations of d2-labelled B12 IgG used for screening were 1.25 nM. Unless otherwise stated, biotinylated rCd4-His-FBG (biotin:protein ratio=1.8:1) was present at either 2.2 nM (in assays using the 2A5 IgG antibody) or 1 nM (in experiments using B12 IgG). Samples were incubated for approximately 1 h at room temperature and the FRET signal was determined using a BMG Pherastar instrument: excitation=320 nm; emission=620 nm and 665 nm; integration start time=60 μs; integration time=500 μs; 100 flashes per well. For competition assays containing culture supernatant, biotinylated rCd4-His-FBG antigen was pre-incubated with streptavidin europium cryptate for 45 min prior to addition of reagents to the assay plate. All FRET signals are presented as ΔR, where R =(E665/E620×104) and ΔR =(Rsample-Rbackground fluorescence).
Culture supernatants containing unlabelled scFv clones from affinity selected mutant libraries were tested for inhibition of the interaction between FBG and the fluorophore-labelled parental IgG antibody. […] The parental clones, expressed as scFvs in parallel with the affinity matured clones, were used as benchmarks.
In general terms: Time-resolved FRET reads energy transfer from a long-lived donor to a nearby acceptor.

Residue numbers refer to the chain shown, from its start. Names may count otherwise.

B1: IgG4 165_13_C3* (antibody, V domains shown)
VH: QVQLVESGGGLVQPGRSLRLSCAASGFTFDDYAMHWVRQAPGKGLEWVSGISGSGGSTYYADSVKGRFTISRDNAKNSLYLQMNSLRAEDTALYYCAKSYQSDEDAFDIWGQGTMVTVSS
VL: DIQMTQSPSSLSASVGDRVTITCRASQYIQGFLNWYQQKPGKAPKLLIYDASNLETGVPSRFSGSGSGTDFTLTISSLQPEDFATYYCQQSYSTPQTFGQGTKVDIKR
notes: Hinge-modified IgG4 (S241P); neither is tied by name to C3* as tested; also called NSCT-141
As to B1, the “SA, surface activity” value stood at 297% in assay [1], 304% in assay [2] and 233% in assay [3]. Also, the dissociation constant (Kd) worked out at 443 pM in assay [4], 670 pM in assay [5] and 53100 pM in assay [6]. Also, the koff in assay [4] came out at 0.0041 s⁻¹; in assay [5], 0.0042 s⁻¹; in assay [6], 0.058 s⁻¹. Also, the on-rate constant (kon) in assay [4] is 9.35e+06 M⁻¹ s⁻¹; in assay [5], 6.28e+06 M⁻¹ s⁻¹; in assay [6], 1.11e+06 M⁻¹ s⁻¹.

B2: 165_13_D1 scFv (scFv, V domains shown)
VH: B1 VH with S99G, Y100T, Q101R, S102G, D103E, E104G, A106T
VL: B1 VL with S9A, S12P, A13T, S14P
notes: scFv in E. coli supernatant
B2: in assay [7], the “fold improvement for mouse FBG binding against parent B12” value (from here on “fold improvement for mouse FBG binding”) was at least 4 fold.

B3: 165_13_B6 scFv (scFv, V domains shown)
VH: B1 VH with S99G, Y100Q, Q101K, S102G, D103E, E104G, A106T
VL: B1 VL with S9A, S12P, A13T, S14P
notes: scFv in E. coli supernatant
Take B3: the “fold improvement for mouse FBG binding” value in assay [7] is at least 4 fold.

B4: 165_13_A4 scFv (scFv, V domains shown)
VH: B1 VH with S99D, Y100K, Q101Y, S102P, D103V, E104L, A106T
VL: B1 VL with S9A, S12P, A13T, S14P
notes: scFv in E. coli supernatant
B4: the “fold improvement for mouse FBG binding” value in assay [7] is at least 4 fold. Moreover, the “% inhibition of HTRF signal” value in assay [8] is at least 91%.

B5: 165_13_C3 scFv (scFv, V domains shown)
VH: B1 VH
VL: B1 VL with S9A, S12P, A13T, S14P
notes: scFv in E. coli supernatant
For B5, the “fold improvement for mouse FBG binding” value in assay [7] was at least 4 fold. For the same molecule, in assay [8], the “% inhibition of HTRF signal” value is at least 91%.

B6: 180_11_F5 scFv (scFv, V domains shown)
VH: B1 VH with S99V, Y100M, Q101R, S102T, D103G, E104L, A106T
VL: B1 VL with S9A, S12P, A13T, S14P
notes: scFv in E. coli supernatant
On to B6, for which the “fold improvement for mouse FBG binding” value in assay [7] was at least 4 fold. For the same molecule, the “% inhibition of HTRF signal” value in assay [8] was at least 91%.

B7: 165_13_E1 scFv (scFv, V domains shown)
VH: B1 VH with S99D, Y100I, Q101S, S102A, D103V, E104M, A106V, F107P, D108Q, I109T
VL: B1 VL with S9A, S12P, A13T, S14P
notes: scFv in E. coli supernatant
Take B7: the “fold improvement for mouse FBG binding” value in assay [7] is at least 4 fold. Also, in assay [8], the “% inhibition of HTRF signal” value is at least 91%.

B8: 165_13_D4 scFv (scFv, V domains shown)
VH: B1 VH with S99G, Y100T, Q101V, S102G, D103E, E104G, A106T
VL: B1 VL with S9A, S12P, A13T, S14P
notes: scFv in E. coli supernatant
As to B8, the “fold improvement for mouse FBG binding” value in assay [7] is at least 4 fold. For the same molecule, the “% inhibition of HTRF signal” value in assay [8] is at least 91%.

B9: 165_13_B1 scFv (scFv, V domains shown)
VH: B1 VH with S99V, Y100M, Q101S, D103M
VL: B1 VL with S9A, S12P, A13T, S14P
notes: scFv in E. coli supernatant (pSANG10, FLAG-tagged)
Regarding B9, in assay [7], the “fold improvement for mouse FBG binding” value was at least 4 fold.

B10: 165_13_B3 scFv (scFv, V domains shown)
VH: B1 VH with S99A, Y100L, Q101A, S102R, D103G, E104H, A106T
VL: B1 VL with S9A, S12P, A13T, S14P
notes: scFv in E. coli supernatant
On to B10, for which the “fold improvement for mouse FBG binding” value in assay [7] was at least 4 fold. In assay [8], the “% inhibition of HTRF signal” value was at least 91%.

As usually defined, the Kd is the constant that tells how readily two partners part at equilibrium. The low end stands for a tighter complex, the high end for a looser complex. Usually koff stands for a measure of how fast the partners let go of each other. A low value points to a long-lived complex. As a reminder, the kon is the rate constant with which the complex forms. Read a low kon as slow association.
